Data published in patent US8524666 (IBCC, dated 2013).

Legend:
Assay in all cases: GST pull-down from transfected MCF-7 lysate, western blot
[1] = target: T1, vimentin deletion mutant containing aa 97-466 of SEQ ID NO: 1 (human, UniProt P08670 97-464)
T1 construct: Tested in lysate of transfected MCF-7 cells; The forward oligo carries an ATG start codon before the fragment; not shown: C-terminal Myc and His tags of the pcDNA3.1/MycHis B vector
Description: (§1) Full length vimentin or its deletion mutant constructs were transfected into MCF-7 cells. After incubation cells were lysed and lysate was used in pull-down reaction using GST-tagged CD44-HABD proteins immobilised onto glutathione sepharose beads. After pull-down, beads were washed and bound proteins were eluted. Eluates were analysed on western blot. A, vimentin deletion mutants used in pull-down reactions. B, WB of pull-down reactions from vimentin and its deletion mutant transfected cell lysates.
(§2) CD44-3MUT binding of vimentin deletion mutants was tested using GST pull-down from cell lysates. MCF-7 cells were transfected with vimentin deletion-constructs on 15 cm cell culture plates using 20 µg DNA with polyethyleneimine (PEI; DNA and PEI were used in ratio 1:2). Transfected cells were incubated at 37° C. for 72 h. Thereafter, adherent cells were washed once with cold PBS and lysed in 2 ml of lysis buffer containing 50 mM Tris pH 8.0, 50 mM NaCl, 2% CHAPS and protease inhibitor cocktail (Roche). For removal of insoluble material the lysates were centrifuged 14000 rpm 30 min at 4° C. Resulting lysates were used in GST pull-down. For pull-down 10 µg GST, GST-HABD or GST-3MUT were immobilised onto glutathione sepharose 4 fast flow beads (GE Healthcare) in 0.5 ml of PBS. Cell lysates were precleared by incubating the lysates with GST-coupled glutathione beads for 2 h at 4° C. with continuous rotation. After preclearing, the lysates (0.6 vol per reaction) were incubated over-night at 4° C. with GST, GST-HABD or GST-3MUT proteins immobilised onto 25 µl glutathione sepharose beads. After pull-down reactions, beads were washed 4 times with 0.3 ml vol wash buffer containing 50 mM Tris pH 8.0, 150 mM NaCl and protease inhibitor cocktail. Bound proteins were eluted 3 times with 25 µl volume elution buffer 20 mM reduced glutathione, 50 mM Tris pH 8.0. Eluates were pooled and after SDS PAAG pull-down reactions were analysed by western blotting with anti-His specific pAb (H-15) (Santa Cruz Biotechnology) or anti-vimentin specific pAb (Genway).

[2] = target: T2, vimentin deletion mutant containing aa 134-466 of SEQ ID NO: 1 (human, UniProt P08670 134-464)
T2 construct: Tested in lysate of transfected MCF-7 cells; not shown: EGFP and linker of the pEGFP-C3 vector
T2 sequence (P08670 other isoform, or with tags, fused parts or gaps mutant): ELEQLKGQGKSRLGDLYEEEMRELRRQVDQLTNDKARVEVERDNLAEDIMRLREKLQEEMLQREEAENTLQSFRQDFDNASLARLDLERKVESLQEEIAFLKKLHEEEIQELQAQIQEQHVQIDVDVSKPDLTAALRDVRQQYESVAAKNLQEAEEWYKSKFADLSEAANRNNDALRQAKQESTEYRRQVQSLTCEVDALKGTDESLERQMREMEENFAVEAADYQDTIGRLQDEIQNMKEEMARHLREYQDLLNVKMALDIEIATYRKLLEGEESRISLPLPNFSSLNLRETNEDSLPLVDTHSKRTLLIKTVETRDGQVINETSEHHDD
Description: as §1, §2

[3] = target: T3, vimentin deletion mutant containing aa 407-466 of SEQ ID NO: 1 (human, UniProt P08670 407-464)
T3 construct: Tested in lysate of transfected MCF-7 cells; not shown: EGFP and linker of the pEGFP-C2 vector
T3 sequence (P08670 other isoform, or with tags, fused parts or gaps mutant): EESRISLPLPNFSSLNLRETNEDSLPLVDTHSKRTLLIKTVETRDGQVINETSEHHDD
Description: as §1, §2

Measured: binding result

T1 sequence (P08670 other isoform, or with tags, fused parts or gaps mutant): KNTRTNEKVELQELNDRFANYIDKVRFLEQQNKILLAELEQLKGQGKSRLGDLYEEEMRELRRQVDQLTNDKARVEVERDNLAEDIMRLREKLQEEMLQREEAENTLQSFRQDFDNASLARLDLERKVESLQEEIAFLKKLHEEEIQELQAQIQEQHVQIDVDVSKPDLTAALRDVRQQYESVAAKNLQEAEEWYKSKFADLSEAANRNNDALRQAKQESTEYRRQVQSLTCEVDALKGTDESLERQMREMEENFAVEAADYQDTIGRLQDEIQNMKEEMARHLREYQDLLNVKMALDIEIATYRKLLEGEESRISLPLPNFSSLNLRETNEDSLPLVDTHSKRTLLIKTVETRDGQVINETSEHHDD

B1: GST tagged CD44-HABD R41AR78SY79S mutant (CD44-3MUT) (other, not shown: a dimerising Fc or GST; small tags and cut ends)
chain: QIDLNMTCRFAGVFHVEKNGAYSISRTEAADLCKAFNSTLPTMAQMEKALSIGFETCSSGFIEGHVVIPRIHPNSICAANNTGVYILTSNTSQYDTYCFNASAPPEEDCTSV
notes: Immobilised on glutathione sepharose beads in the pull-downs; also called GST-3MUT; GST-SB101
no binding: all assays above
